From the DeepSol protein solubility set

Assay: soluble on expression in E. coli; label from the status in PepcDB or PDB records

Sequence	soluble on expression in E. coli
MSLNDQIKIRKATKEDWEKIYQLYNSLSDEDLYLRFFHLYRITEEDAKKIASNEDHVTFLAEVDGKVVGEASLHKDGEFSLVVHRNYRTLGIGTLLVKTLIEEAKKSGLSTVKFYTLPENTPMIKIGRKLGFKMRFYEDEVYGEMRLTERELNVNLATFSAPEGHHHHHH	soluble
MTDQLQHIRKPPRTGKAARSGTQDEIVYAHIFDAILEQRLAPGTKLSEEALGEIFGVSRTIIRRALSRLAHEQVVLLRPNRGAVVASPSIDEARQILFARRTVERAITELATDNATAERLAEL	not soluble
MSLTSEIIDVHMHCFVGRQQETALARDIALLRREGLRRMVVAGLVNTHPDPETTWNLIPDYVENHGDPHFNEADDLLALAESVDHALLPFVDTRYLRGDVATALDGYMGQGFKGVKGIYLPDNENDLGVGNVPDTLGISLEQYRRREWDLFAYAENHDLPLLYHMDARRYGDVMKDLLDDFPRVRVNFPHLGIGRKAFSAFLDRYPNIFTDIAGLLPYMRSNPASYRDFIMHYPDRICFGTDTFLYQAGSALDYISMVRELRLPEEIEAQVFNGNPTRFLGCVLYGAEGHHHHHH	not soluble
ATTYNAVVSKSSSDGKTFKTIADAIASAPAGSTPFVILIKNGVYNERLTITRNNLHLKGESRNGAVIAAATAAGTLKSDGSKWGTAGSSTITISAKDFSAQSLTIRNDFDFPANQAKSDSDSSKIKDTQAVALYVTKSGDRAYFKDVSLVGYQATLYVSGGRSFFSDCRISGTVDFIFGDGTALFNNCDLVSRYRADVKSGNVSGYLTAPSTNINQKYGLVITNSRVIRESDSVPAKSYGLGRPWHPTTTFSDGRYADPNAIGQTVFLNTSMDNHIYGWDKMSGKDKNGNTIWFNPEDSRFFEYKSYGAGATVSKDRRQLTDAQAAEYTQSKVLGDWTPTLP	soluble
MAEDGPQKQQLDMPLVLDQDLTKQMRLRVESLKQRGEKKQDGEKLLRPAESVYRLDFIQQQKLQFDHWNVVLDKPGKVTITGTSQNWTPDLTNLMTRQLLDPAAIFWRKEDSDAMDWNEADALEFGERLSDLAKIRKVMYFLITFGEGVEPANLKASVVFNQL	soluble
KEQILSSEQLARKMMLELGDKKQEHLVAIYMDTQNRIIEQRTIFIGTVRRSVAEPREILHYACKNMATSLIIIHNHPSGSPKPSESDLSFTKKIKRSCDHLGIVCLDHIIVGKNKYYSFREEADI	not soluble
MDELNPSPPVSEDPEHWYCTNMVGVPVGLIGSTAFNRCLRRITIHGTRETHPGLFRLLAACEYPATASEVFEHYMELEFGLAPGAHEPTQARYPTSYLDLLRGWGVESDCPKAAVLKGWVESRFGLVPTFHKQRLGLFPSSAWATYLQEKTDVRFHNNCIFQQFDLLYEYCQWSIRRFKTPGPRFVRLWRGTNDVEQQLVEGDARQRLCTVRLNNLVSFSDSKERAEEFGDWVLETEVPTVKLLFFPGLLQRQVLGYEGEFLVIGGNYKVRAYHGWFAAALEHHHHHH	not soluble
MTKIIPVASGKGGVGKTSFVANVGYKLSSLGKTVILVDLDLGGSNLHTCLGVKNKGVGIGSFINKKSKSFSDLVCKTSYDKLYLIPGDALYTGTANLPFSIKKKIIESIQKDLIADFIFLDLGSGTSYNTIDFYLASYSGVIVTIPETPSILNAYSFLKNALYRLLYLGFPQKSPERDYIGNFFKDKIEGTNLGFKDLVVGIELISLSSSLKVKRMMNNFYPRVVLNRIETSEEIAMCENLINVVKNNINIPIEFIGFVPFAKSFREAINNRVPFIDFEKNSKLNKYFEFIAGNLIKSPIEGSPYIYDDIYDMIKDQSRFIRKLEHHHHHH	soluble
MIKIVTDNFLYEKEKVLALRYMYDSAKKPGITIITVTNKQKYIKNIMDNFRRCLYPKKEFIIILNDTKLQTSLYKNYFSKTKNLKLFKVDSSYSLGECLNLAISKSNYNYIAKMDDDDYYGSHYILDSMNAFNYTDASIIGKATHFIYFEDRTLLNLWCQGNENTYATSVAGATFVMKKSIFNKVKFNSLNNGEDIDLLSQCNNLGIKIYSCSKFNYVYNRHASPDNHSWKISNDLLVKRSIKLCITKSYKRIVHILEHHHHHH	not soluble
SASLIQRIARQACLTFRGSSTGSEGPAPGFPENLSLLKSLLTQVRAEDLNIAPRKALPQPLPRNLPPVTYMHIYETEGFSLGVFLLKSGTCIPLHDHPGMHGMLKVLYGTVRISCMDKLDTGAGHRRPPPEQQFEPPLQPLEREAVRPGVLRSRAEYTEASGPCVLTPHRDNLHQIDAVDGPAAFLDILAPPYDPEDGRDCHYYRVVEPIRPKEASGSACDLPREVWLLETPQADDFWCEGEPYPGPKVLP	soluble
MRRICKDERRIQSVNSSEEIAVSGMSAGRSAMRMGPAELVQAAAMARRFYLEGKSKIQIAEEFGVSRFKVARVLETALERDLVRIEIRVPAELDAERSDALRARYGLRHAVVVESPADAEETPDPENLGEVAADLLGELVNEGDVLGLAWGRSTIHMAAALDRLPPCTVVQLTGVYDAGTAERGSVEAVRRAAQVSGGDAHPIYAPMLLPDAATAQALRHQTGIARAFEYFDKVTVACVSIGSWEPGISTVHDMLSDEERAHYASLGVAAEMSAHLFDAEGRRVGRDLGERCITVKADQLRRIPEVVAIAGGQRKAAAIDAVLRSGLVTSLVTDTSAADYLMTVGSAPKSTLNRTDPDGI	not soluble
AHHHHHHGSKLMEVSPLFPCIFLRRVNRFVGLVRIKERIERALITNTGRLNEFMIPGRIGYCTPKAGGKTRYILLGFEDHGKIAIIDTRLQGKAFEKIIEKELLPELEGCRIIKREPRVGESRLDYLLECSKGEIFVETKSAVLREGEYAMYPDCPSVRGQRHIKELIKLARDGKRAMIVFIGALPNVSKFKPYKKGDPKIAELLKEALEAGVEIRALGLHMELSGEIIYRGELGVEI	soluble
MGGSHHHHHHGMASLAPGSSRVELFKRKNSTVPFEESNGTIRERVVHSFRIPTIVNVDGVMVAIADARYETSFDNSFIETAVKYSVDDGATWNTQIAIKNSRASSVSRVMDATVIVKGNKLYILVGSFNKTRNSWTQHRDGSDWEPLLVVGEVTKSAANGKTTATISWGKPVSLKPLFPAEFDGILTKEFIGGVGAAIVASNGNLVYPVQIADMGGRVFTKIMYSEDDGNTWKFAEGRSKFGCSEPAVLEWEGKLIINNRVDGNRRLVYESSDMGKTWVEALGTLSHVWTNSPTSNQQDCQSSFVAVTIEGKRVMLFTHPLNLKGRWMRDRLHLWMTDNQRIFDVGQISIGDENSGYSSVLYKDDKLYSLHEINTNDVYSLVFVRLIGELQLMKSVVRTWKEEDNHLASICTPVVPATPPSKGGCGAAVPTAGLVGFLSHSANGSVWEDVYRCVDANVANAERVPNGLKFNGVGGGAVWPVARQGQTRRYQFANYRFTLVATVTIDELPKGTSPLLGAGLEGPGDAKLLGLSYDKNRQWRPLYGAAPASPTGSWELHKKYHVVLTMADRQGSVYVDGQPLAGSGNTVVRGATLPDISHFYIGGPRSKGAPTDSRVTVTNVVLYNRRLNSSEIRTLFLSQDMIGTDGGAGTAA	soluble
MGSDKIHHHHHHMREAVMCRFVAYLGRPTLLENVLVRPKNSIIMQSLHARETKYRTNGDGFGLGWYSPEVSSDPALFTSVYPAWNDRNLLHLTAKIQSPCFFAHVRSASAGGVTNYNCHPFIYGDWMLMHNGEINDFIDVKRHIRHLLDDDIYHWVKGQTDSEHLFGLFLQLAKGRDITQLSVAADVLQETINKILEVIGQFGHSGPSYFNICLTNGKKIIATRYCSHEKKKPLTLHYLIGYVLSTQGLWIKEEGNPAYVVVSSERLNDLDEGWEDVPPQHMILIDENKNIQLRPLQTLG	not soluble
MGSDKIHHHHHHMINIIICEGKKSERVILNDYINTFFYNYNFEYNIKEFENGGDLLKKYPNNVDIIFMDIDLNDENGFNVSKEIKKFDESVRIIFVSSSNKYIKKGYEIGVYRYLEKPLKYSLFKEAISSYLKECYKNEAILSIKCKCKIYFIKVDDILYLEVLKNDLTIHTEKGIYTFKSSMKEIESNLEEHNFFRCHKSYLINLMKVNMLDIENNIVFINQNSIIVSRYKIKLLREKLNSCLVDVII	not soluble
MAHHHHHHMPFVDHNKYKIQREDLPALPHFTDFNDPRFCGTNNKQKNGILAYYQWLHCVGNWGEEHSMCKKMRWYVERMMQEVWLEKWEEKRALGHFDHVLLYGVKPWKDFEPLYQPVKTNRKGAYEFWLDRDFEPLYDADASDFCEKAPILHDIFVKGKKPVYDE	not soluble
MAHHHHHHMLLLLFRPVYQCTVALLCRSLPAYHPCLLSTDSPPPFFTVFCHLDDALHAMRRRSCSLRRLEVHTKRRAHAIMAELANPNPTVFEPTHDPLKGRTDAERAAEDDEDTEDPIDAWEVFEMIRRIRDPEHPNSLEQLKVVEPSLITVDWKKRHIRVLFTPTVPHCSLTTLIGLSIRLQLERSLPEYTKVDIYVTPGTHEQEAQVNKQLNDKERVAAALENRNLLNVVESCINEFDE	not soluble
MPWRTALKVALAAGEAVAKALTRAVRDEIKQTQQAAARHAASTGQSASETRENANSNAKLGISLEESLQILNVKTPLNREEVEKHYEHLFNINDKSKGGTLYLQSKVFRAKERIDEEFGRIELKEEKKKEENAKTE	not soluble
MSLSIISQIEACDFERLYEIEQQAHLVPWSFGTLKNNQGERYLNLKLIENNQIIGFAICQTVLDEATLFNIAILPTYQGCGFGKLLLGKLIFQLKEKGVQTLWLEVRESNSARFLYEKIGFNEVDIRKNYYPKPSGGRENAVVMACYLEGHHHHHH	not soluble
MSLNSLLLVSRIYQQTCIDDLAQLANEVKASFVRLVNEDANSHMIGTAMSTIGRAFTQRIIELVEAELGAAPLPYCFVAFGSMGRDEQLIVTDQDNALILDDRYDVQQHGAYFAQFAELVCRGLDRCGYPLCDGEIMASNPKWRMTRKEWETCFADWIDNPNPQALLNASIFFDLDGVYGRTKWAEQLSGFIVRRARRNQRFLACLARNALNRTPPLGFFKNFVMEKDGRHNNSINLKRRGTAPLADLIRVHALAAGSRAKNSFERLDDVIEAGLLPQGKGKDLRDALEFIAMVRIRHQAIDVEQEREADNSIEPEHLSDFERRNLKDAFQILSNGQNYLKYRYQANQHFKEGHHHHHH	soluble
MSILDGFKEVGESNNGKLTMTVMLESVRFSKNVSAVLGFPKYVKVLVNNDEKKFAIQKCNDKDEYAIRFATKKPGEASAVTLRNVDLLVATQKFFSFPELDDPTKIAFYALDGEYYSDEQVIVFNVEGAKNGTVGKRGPKAGSHRKTSQAKLEHHHHHH	soluble
FSSREQPQQNEGQIQKLNALKPDNRIESEGGLIETWNPNNKPFQCAGVALSRCTLNRNALRRPSYTNGPQEIYIQQGKGIFGMIYPGCPSTFEEPQQPQQRGQSSRPQDRHQKIYNFREGDLIAVPTGVAWWMYNNEDTPVVAVSIIDTNSLENQLDQMPRRFYLAGNQEQEFLKYQQEQGGHQSQKGKHQQEEENEGGSILSGFTLEFLEHAFSVDKQIAKNLQGENEGEDKGAIVTVKGGLSVIKPPTDEQQQRPQEEEEEEEDEKPQCKGKDKHCQRPRGSQSKSRRNGIDETICTMRLRHNIGQTSSPDIYNPQAGSVTTATSLDFPALSWLRLSAEFGSLRKNAMFVPHYNLNANSIIYALNGRALIQVVNCNGERVFDGELQEGRVLIVPQNFVVAARSQSDNFEYVSFKTNDTPMIGTLAGANSLLNALPEEVIQHTFNLKSQQARQIKNNNPFKFLVPPQESQKRAVA	soluble
MTYKELATFLKVLSDSSRLEILDLLSCGELCACDLLAHFQFSQPTLSYHMKALVKTNLVTTRKIGNKHLYQLNHNIFESVINNLSKVHTSNQRCICHNLKTGEC	not soluble
